Experimental data taken from article PMC12080763.

Key:
[1] = biological target: truncated prolactin receptor of Nb2 cells (rat (endogenous in Nb2-11))
[2] = biological target: truncated prolactin receptor of Nb2 cells (rat (endogenous in Nb2-11)); remark: listed apart in the source

| EC50 of Nb2-11 cell proliferation (Alamar Blue, 3 days), Fig 3C [1] | EC50 of Nb2-11 cell proliferation (Alamar Blue, 3 days), Fig 3A [2] | Substance |
| --- | --- | --- |
| 0.81 nM | – | Fc-(FL3)-mono-hGH (from UniProt P01241 27-217) (Fc fusion) |
| – | 1.64 nM | Mono-hGH-(FL3)-Fc (from UniProt P01241 27-217) (Fc fusion) |
